What was measured:
[1] = target: T1, C3a Receptor (Homo sapiens, UniProt Q16581); assay: Whole cell 125I-C3a binding to C3a Receptor expressing RBL-2H3 cells (competition and saturation); set-up: cDNA encoding a complete orphan GPCR of 482 amino acids; expressed in transfected cells; conditions: for IC50: RBL-2H3 cells expressing C3a Receptor, 1×10^6 cells; for IC50 / competition of 125I-C3a binding / specific binding (in words): 2.3 nM labelled C3a; for competition of 125I-C3a binding / specific binding (in words): cells expressing C3a Receptor
T1 sequence (Q16581 1-482 F151C): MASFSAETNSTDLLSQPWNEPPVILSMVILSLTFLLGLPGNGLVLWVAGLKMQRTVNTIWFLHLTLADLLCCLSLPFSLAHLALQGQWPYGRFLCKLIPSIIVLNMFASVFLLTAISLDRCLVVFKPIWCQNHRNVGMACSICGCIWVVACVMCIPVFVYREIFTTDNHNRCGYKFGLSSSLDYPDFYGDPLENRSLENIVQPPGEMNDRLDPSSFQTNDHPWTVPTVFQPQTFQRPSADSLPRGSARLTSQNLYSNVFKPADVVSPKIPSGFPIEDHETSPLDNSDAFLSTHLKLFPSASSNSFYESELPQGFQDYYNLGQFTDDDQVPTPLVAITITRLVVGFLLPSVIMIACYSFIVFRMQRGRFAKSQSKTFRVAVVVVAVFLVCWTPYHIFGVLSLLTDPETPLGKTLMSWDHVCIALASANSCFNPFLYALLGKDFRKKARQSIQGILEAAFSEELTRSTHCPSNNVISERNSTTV
Source text: (§1) To prepare C3a Receptor for expression in mammalian cells, a 1.6 kb cDNA fragment was obtained by PCR amplification that encompassed the entire C3a Receptor open reading frame. This fragment was subcloned into KpnI/Hind III sites of the mammalian expression vector, pCDN (Aiyar, N., et al (1994) Mol. Cell. Bio. 131, 75-86). Oligonucleotide primers used for PCR amplification were 5'-GA AGT GGT ACC ATG GCG TC-3' (SEQ ID NO:4) and 5'-GC TCCAAGCTTTCACACAGTTG-3' (SEQ ID NO:5) (the translation start and stop codons are underlined). RBL-2H3 cells were electroporated with either C3a Receptor or C5a-R in the pCDN mamalian expression vector (Aiyar, N., et al (1994) Mol. Cell. Bio. 131, 75-86), exactly as described (DeMartino, J. A., et al (1994) J. Biol Chem. 269, 14446-14450). Individual G418 resistant (400 μg/ml) colonies were isolated and expanded. Clonal cell lines expressing either C3a Receptor or C5a-R were chosen for further functional and binding studies.
The C3a carboxy-terminal analogue synthetic peptide, [WWGKKYRASKLGLAR (SEQ ID NO:3)] was obtained from Bachem Bioscience, Inc., King of Prussia, Pa. C3a was purchased from Advanced Research Technologies, San Diego, Calif. Human rC5a was expressed in E. coli and purified to homogeneity. Other agonists were obtained from Sigma, St. Louis, MO. C3a was radioiodinated using IODOBEADS (Pierce, Rockford Ill.) to a specific activity of 100 Cilmmol. Increasing concentrations of cold competitor were added to 1×10^6 cells in the presence of ^125 -C3a (2.3 nM), and the assay was performed essentially as described (Klos, A., et al (1992) Biochemistry 31, 11274-11282).
C3a was radioiodinated and used in whole cell binding assays to further characterize C3a Receptor. […] Curiously, HEK 293 cells stably expressing C3a Receptor mRNA by Northern Blot, neither bound nor responded to C3a (data not shown).

[2] = system: C5a-R; assay: Calcium mobilization by Fura 2 loaded RBL-2H3 cells stably expressing C5a-R; assay type: cell-based, human; conditions: RBL-2H3 cells expressing C5a-R, Fig. 4: rC5a 10 nM, C3a analogue peptide 1 uM
Description: (A) Electrophysiological response of Xenopus oocytes injected with cRNA for C3a Receptor (10 ng), total U937 RNA (25 ng), or a mixture of C3a Receptor (10 ng) and U937 RNA (25 ng) to 10 nM rC5a, 10 nM C3a analogue peptide, 10 nM platelet activating factor (PAF), 10 nM fMetLeuPhe. Inset, represents typical response of oocytes co-injected with C3a Receptor cRNA+U937 RNA to 10 nM C3a. (B) Electrophysiological response of oocytes injected with C5a-R cRNA (10 ng), U937 RNA (25 ng) or a mixture of C5a-R and U937 RNA, to 10 nM rC5a or 10 nM C3a analogue peptide. […] Calcium mobilization by Fura 2 loaded cells expressing C5a receptor (FIGS. 4A & 4C) or C3a Receptor (FIGS. 4B & 4D) in response to rC5a (10 nM, FIG. 4A or 100 nM, FIG. 4B) or C3a analogue peptide (1 uM, FIGS. 4C & 4D).
as §1
RBL-2H3 cells (Siraganian, R. P., et al (1982) Fed. Proc. 41, 30-34), a rat basophil cell line, when transfected with an expression plasmid encoding the C5a-R express receptors that are functionally active (DeMartino, J. A., et al (1994) J. Biol. Chem. 269, 14446-14450). RBL-2H3 cells were stably transfected with mammalian expression plasmids encoding the C5a-R or C3a Receptor and Fura 2 loaded cells were tested for a C5a or C3a induced mobilization of intracellular Ca^2+.
Fura 2 loaded clonal cell lines expressing C5a-R or C3a Receptor were assayed for functional response, Ca^2+ mobilization, as described (Saussy, D. L. Jr., et al (1989) J. Biol. Chem. 264, 19845-19855).

Row | Molecule | IC50 [1] | competition of 125I-C3a binding / specific binding (in words) [1] | Bmax ([1]; saturation binding and Scatchard analysis, data not shown) | Kd ([1]; saturation binding and Scatchard analysis, single class of sites, data not shown) | mobilization of intracellular Ca2+ (response in words) [2] | mobilization of intracellular Ca2+ (response in words) ([2]; listed as native human C3a)
1 | C3a: C3a was purchased from Advanced Research Technologies, San Diego; anaphylatoxin; radioiodinated for binding | 3 nM | specifically bind | 32,000 receptors per cell | 0.3 nM | not C5a receptor bind and respond | not C5a-R expressing RBL-2H3 cells also responded
2 | WWGKKYRASKLGLAR [C3a analogue synthetic peptide, reference compound] | 155 nM | specifically bind | – | – | no response | –
3 | rC5a: Human rC5a was expressed in E. coli and purified to homogeneity (protein, UniProt P01031 678-751, looked up, C5a anaphylatoxin recombinant, E. coli, Human rC5a was expressed in E. coli and purified to homogeneity) C5a anaphylatoxin: TLQKKIEEIAAKYKHSVVKKCCYDGACVNNDETCEQRAARISLGPRCIKAFTECCVVASQLRANISHKDMQLGR | – | not | – | – | responded | –

From US5942405A, “Therapeutic and screening methods using C3a receptor and C3a” (priority 1997, dated 1999)
